B1: BCL10 full-length fused to mEos3.1 [human] / itself (parent)
chain: MEPTAPSLTEEDLTEVKKDALENLRVYLCEKIIAERHFDHLRAKKILSREDTEEISCRTSSRKRAGKLLDYLQENPKGLDTLVESIRREKTQNFLIQKITDEVLKLRNIKLEHLKGLKCSSCEPFPDGATNNLSRSNSDESNFSEKLRASTVMYHPEGESSTTPFFSTNSSLNLPVLEVGRTENTIFSSTTLPRPGDPGAPPLPPDLQLEEEGTCANSSEMFLPLRSRTVSRQ

Variants of: B1
Assay: DAmFRET (Weibull fit) in yeast cells, homotypic self-assembly
Settings: with itself; read off a plot

Going from chain 1 R58G to chain 1 R58L, the screen value rises from 0.34 to 0.35.

chain 1 R58Q was tested, and the screen value was 0.38.

Source: publication PMC9342958
